In PMC6427009 (Scientific Reports, 2019):

Target: Hemagglutinin of Influenza A/California/07/2009 (H1N1) (Influenza A/California/07/2009 (H1N1), UniProt C3W5X2, fully glycosylated (7 glycosylation sites))
Experiment: HDX-MS
Details: both partners purified

B1: llama single-domain antibody SD38 (VHH)
VHH: EVQLVESGGGLVQPGGSLRLSCAVSISIFDIYAMDWYRQAPGKQRDLVATSFRDGSTNYADSVKGRFTISRDNAKNTLYLQMNSLKPEDTAVYLCHVSLYRDPLGVAGGMGVYWGKGALVTVSS
notes: also called Llama single domain SD38
  binding result: binds
